Laboratory results as given in patent US20020127222A1 (VEGENICS, published 2002).

T1: VEGFR-3-Ig (extracellular domain of human VEGFR-3 fused to the Fc portion of human IgG1) (human, UniProt P35916 25-775)
T1 construct: extracellular domain; Expressed in 293T cells, captured on protein A Sepharose; not shown: Fc portion of human IgG1
T1 sequence (looked up): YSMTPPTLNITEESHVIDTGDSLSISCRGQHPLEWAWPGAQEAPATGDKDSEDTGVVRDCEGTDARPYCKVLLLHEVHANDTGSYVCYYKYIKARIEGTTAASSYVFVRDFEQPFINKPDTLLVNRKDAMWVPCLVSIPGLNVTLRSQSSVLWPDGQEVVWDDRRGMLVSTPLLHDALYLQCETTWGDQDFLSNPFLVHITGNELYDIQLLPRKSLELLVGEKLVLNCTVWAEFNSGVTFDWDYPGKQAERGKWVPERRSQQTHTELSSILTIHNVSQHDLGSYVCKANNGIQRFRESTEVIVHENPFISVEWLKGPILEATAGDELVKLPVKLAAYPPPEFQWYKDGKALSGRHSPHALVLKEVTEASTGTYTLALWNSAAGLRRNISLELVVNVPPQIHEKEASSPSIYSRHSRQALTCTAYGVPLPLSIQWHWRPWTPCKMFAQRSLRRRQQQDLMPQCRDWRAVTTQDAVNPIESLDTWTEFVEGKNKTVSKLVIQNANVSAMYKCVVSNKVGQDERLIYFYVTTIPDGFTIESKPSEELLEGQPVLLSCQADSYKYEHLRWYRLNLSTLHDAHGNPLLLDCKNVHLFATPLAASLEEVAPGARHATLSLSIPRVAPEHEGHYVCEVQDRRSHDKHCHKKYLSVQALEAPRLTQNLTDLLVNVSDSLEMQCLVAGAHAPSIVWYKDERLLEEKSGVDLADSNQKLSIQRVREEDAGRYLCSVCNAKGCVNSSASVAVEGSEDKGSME

B1: VEGF-DΔNΔC (human VEGF-D amino acid residues 93 to 201 tagged with the FLAG octapeptide adjacent to the N-terminus) (ligand, not shown: small tags and cut ends)
chain: FYDIETLKVIDEEWQRTQCSPRETCVEVASELGKSTNTFFKPPCVNVFRCGGCCNEESLICMNTSTSYISKQLFEISVPLTSVPELVPVKVANHTGCKCLPTAPRHPYS
notes: purified from COS cells for the enzyme immunoassay; human VEGF-D?N?C
B2: VEGF-DΔNΔC monomer (size exclusion peak 3, 25 kDa) (ligand)
chain: B1 chain
notes: also called VEGF-D?N?C monomer; monomeric form of VEGF-D?N?C; not shown: FLAG octapeptide tag at the N-terminus
B3: human VEGF165 (ligand, UniProt P15692-4 27-191, looked up)
chain: APMAEGGGQNHHEVVKFMDVYQRSYCHPIETLVDIFQEYPDEIEYIFKPSCVPLMRCGGCCNDEGLECVPTEESNITMQIMRIKPHQGQHIGEMSFLQHNKCECRPKKDRARQENPCGPCSERRKHLFVQDPQTCKCSCKNTDSRCKARQLELNERTCRCDKPRR
notes: 35S-labeled conditioned medium

What was measured:
[1] = molecular target: chimeric receptor containing the extracellular domain of VEGFR-2, on Ba/F3 cells; assay: cell-based or functional assay
[2] = molecular target: T2, VEGFR-1-Ig (extracellular domain of human VEGFR-1 fused to the Fc portion of human IgG1) (human, UniProt P17948 27-758); assay: precipitation of 35S-labeled ligand from conditioned medium by receptor-Ig on protein A Sepharose, SDS-PAGE
T2 construct: extracellular domain; Expressed in 293T cells, captured on protein A Sepharose; not shown: Fc portion of human IgG1
Experimental: (§1) To further assess the interactions between VEGF-D and the VEGF receptors, VEGF-DΔNΔC was tested for its capacity to bind to soluble immunoglobulin fusion proteins comprising the extracellular domains of human VEGFR-1, human VEGFR-2 and human VEGFR-3. The corresponding fragment of VEGF-C, VEGF-CΔNΔC, was used for comparison. For binding experiments, 293T human embryonal kidney cells were transfected with plasmids encoding the soluble receptor-immunoglobulin fusion proteins VEGFR-1-Ig, VEGFR-2-Ig or VEGFR-3-Ig using the calcium-phosphate (Ca-phosphate) method. In these fusion proteins, the extracellular domain of the relevant VEGF receptor is fused to the Fc portion of human IgG₁. The cells were incubated for 24 hours after transfection, washed with Dulbecco's Modified Eagle's Medium (DMEM) containing 0.2% bovine serum albumin (BSA) and starved for 24 hours. Media were then collected and clarified by centrifugation, and fusion proteins were precipitated using protein A Sepharose beads. […] Metabolic labeling of 293-EBNA cells was carried out essentially as described (Joukov et al., 1997). The Sepharose beads were then washed twice with binding buffer (0.5% BSA, 0.02% Tween 20, 1 μg/ml heparin in phosphate buffered saline (PBS)) at 4° C. and once with PBS, boiled in Laemmli sample buffer, and proteins were then analyzed by SDS-PAGE.
(§2) In FIG. 3, precipitation of labeled VEGF₁₆₅, VEGF-CΔNΔC and VEGF-DΔNΔC by VEGFR-1-Ig, VEGFR-2-Ig and VEGFR-3-Ig was carried out as described above. The fusion proteins used for the precipitations are shown to the right. “Vector” denotes results of precipitations from medium derived from cells transfected with expression vector lacking sequence encoding the VEGFs. The molecular weight markers are indicated in kDa

[3] = molecular target: T3, VEGFR-2-Ig (extracellular domain of human VEGFR-2 fused to the Fc portion of human IgG1) (human, UniProt P35968 20-764); assay: as above
T3 construct: extracellular domain; Expressed in 293T cells, captured on protein A Sepharose; not shown: Fc portion of human IgG1
Experimental: as §1, §2

[4] = molecular target: T1, VEGFR-3-Ig (extracellular domain of …); assay: as above
Experimental: as §1, §2

[5] = molecular target: the molecule itself; assay: size exclusion chromatography and SDS-PAGE (self-association)

T2 sequence (P17948 27-758): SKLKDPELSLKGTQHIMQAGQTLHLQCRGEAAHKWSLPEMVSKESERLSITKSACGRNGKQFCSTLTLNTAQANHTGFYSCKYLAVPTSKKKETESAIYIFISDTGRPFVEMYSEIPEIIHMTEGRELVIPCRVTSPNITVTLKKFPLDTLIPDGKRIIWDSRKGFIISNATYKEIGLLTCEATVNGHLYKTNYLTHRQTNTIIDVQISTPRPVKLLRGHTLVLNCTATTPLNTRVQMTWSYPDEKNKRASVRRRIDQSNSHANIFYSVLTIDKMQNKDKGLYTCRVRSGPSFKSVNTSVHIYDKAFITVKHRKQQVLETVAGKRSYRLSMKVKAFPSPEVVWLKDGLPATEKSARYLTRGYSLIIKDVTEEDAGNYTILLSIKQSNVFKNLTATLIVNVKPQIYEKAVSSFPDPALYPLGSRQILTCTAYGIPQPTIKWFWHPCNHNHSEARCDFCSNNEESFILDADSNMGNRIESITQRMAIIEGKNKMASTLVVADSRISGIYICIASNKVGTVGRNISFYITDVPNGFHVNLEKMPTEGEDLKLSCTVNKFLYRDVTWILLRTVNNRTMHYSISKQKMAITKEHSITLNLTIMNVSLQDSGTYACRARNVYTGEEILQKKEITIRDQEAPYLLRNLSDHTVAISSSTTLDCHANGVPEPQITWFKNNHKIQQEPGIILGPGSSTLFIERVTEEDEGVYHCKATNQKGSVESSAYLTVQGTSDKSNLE
T3 sequence (P35968 20-764): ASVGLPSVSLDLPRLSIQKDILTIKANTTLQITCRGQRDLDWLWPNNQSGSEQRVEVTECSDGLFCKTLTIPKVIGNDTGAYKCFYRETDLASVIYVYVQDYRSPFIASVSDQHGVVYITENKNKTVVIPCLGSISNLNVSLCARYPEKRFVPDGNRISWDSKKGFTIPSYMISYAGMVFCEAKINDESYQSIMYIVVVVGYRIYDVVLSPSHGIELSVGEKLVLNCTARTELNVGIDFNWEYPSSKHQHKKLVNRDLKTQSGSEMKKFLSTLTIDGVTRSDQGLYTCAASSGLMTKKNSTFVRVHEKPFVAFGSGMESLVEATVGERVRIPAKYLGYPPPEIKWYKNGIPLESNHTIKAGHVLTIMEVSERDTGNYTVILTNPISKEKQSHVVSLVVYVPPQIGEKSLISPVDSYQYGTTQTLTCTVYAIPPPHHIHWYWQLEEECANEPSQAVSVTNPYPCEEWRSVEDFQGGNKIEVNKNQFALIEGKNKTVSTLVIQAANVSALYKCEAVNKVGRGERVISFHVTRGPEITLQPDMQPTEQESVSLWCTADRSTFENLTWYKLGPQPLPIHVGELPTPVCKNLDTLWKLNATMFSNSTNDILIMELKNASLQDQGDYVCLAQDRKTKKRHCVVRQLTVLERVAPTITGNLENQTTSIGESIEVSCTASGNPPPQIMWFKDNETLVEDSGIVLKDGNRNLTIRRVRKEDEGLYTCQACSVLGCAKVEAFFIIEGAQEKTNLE

Row | Molecule | VEGFR-2 binding activity (Ba/F3 cell bioassay) of size exclusion peak 1 (% of that in peak 2) [1] | binding result [2] | binding result [3] | binding result [4] | binding result [5]
1 | VEGF-DΔNΔC non-covalent homodimer (size exclusion peak 2, 49 kDa) (from UniProt O43915 93-201) (ligand) | 1 | – | – | – | –
2 | B1 | – | no binding | binds | binds | –
3 | B2 | – | – | – | – | binds
4 | B3 | – | binds | – | no binding | –
